Laboratory results reported in the nanobody polyreactivity screen of Harvey et al. (2022).

Assay: yeast display, Sf9 membrane polyspecificity reagent, FACS + sequencing; frameworks hold sequencing errors
Method in brief: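 After 36–48 hours of galactose induction, yeast (Saccharomyces cerevisiae BJ5465) displaying a synthetic nanobody library were stained at 4 °C for 1 hour with 10% biotinylated, detergent-solubilized Sf9 membrane reagent. Streptavidin microbeads enriched the stained cells before FACS sorting into low and high (top ~1%) gates on anti-HA and streptavidin fluorescence. Each clone's polyreactivity label reflects its gate of origin.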

Sequence | polyreactivity (PSR sort gate)
QVQLVESGGGLVQAGRSLRLSCAASGSTFVPYAMGWYRQAPGKERELVAAITTSGGNTYYADSVKGRFTISRDNAKNTVYLQMNSLKPEDTAVYYCAADTYRRFDYWGQGTQVTVSS | low polyreactivity
QVQLVESGGGLVQAGRSLRLSCAASGTFIGYAMVWYRQAPGKERELVAAIDESGGSTYYADSVKGRFTISRDNAKNTVYLQMNSLKPEDTAVYYCAAYRYYSDYDYWGQGTQVTVSS | low polyreactivity
QVQLVESGGGLVQAGRSLRLSCAASGTIFAFYAMGWYRQAPGIVRELVAAITWRGGRTTYADSVKGRFTISRDNAKNTVYLQMNSLKPEDTAVYYCAAVIHWWYATYDYWGQGTQVTVSS | high polyreactivity
QVQLVESGGGLVQAGSSLRLSCAASGSTFLYYAMGWYRQAPGKEREMVAAITSSGGRTYYADSVKGRFTNSRDNAKNTDYLQMNSLKPEDTAVYYCARGWPRREQSEYDYWGQGTQVTVSS | high polyreactivity
QVQLVESGGGLVQAGVRLRLSCAASGFTFAGTAMGWYRQAPGKERELVAAITSGGSTYYADSVKGRFTISRDNAKNTVYLQMNSLKPEDTAVYYCAALVFRGRSFTHDYWGQGTQVTLSS | high polyreactivity
QVQLVESGGGLVQAGVRLRLSCAASGITFYINAMGGYRQAPGKERELVAVIDSRGSSTFYADSVKGRFTISRDTAKNTVYLQMNSLKPEDTAVYYCAAEAPSWYDRQYDYCGQGTQVTVSS | low polyreactivity
QVQLVESGGGLVQAGVSIRLSCAASGSIYENNAMGRYRQAPGKERELVAGITWSGGSTRYADSVKGRFTISRDNAKNTVYLQMNSLKPEDTAVYYCATDDFTYVVAKDGDYWGQGTQVTVSS | low polyreactivity
QVQLVESGGGLVQAGVSLRISCAAAGFTFERYAMGWYRQAPGKERELVATISRRGGSTNYADSVKGRFTISRDNAKNTVYLQMNSLKPEDTAVYYCARTLYRGKSYHVHSKYDYWGQGTQVTVSS | high polyreactivity
QVQLVESGGGLVQAGVSLRISCAASGFTFPEYDMGWYRQAPGKERELVATISGNGGRTYYADSVKGRFTISRYNAKNTVYLQMNSLKPEDTAVYYCAALLYIRSVVYDYWGQGTQVTVSS | low polyreactivity
QVQLVESGGGLVQAGVSLRLSCAASASTFTKYAMGWYRQAPGKERELVAAITASGGNTYYADSVKGRFTISRDNAKNTVYLQMYSLKPEDTAVYYCATGYHRWSSWALDYWGQGTQVTVSS | high polyreactivity
QVQLVESGGGLVQAGVSLRLSCAASGFILGYNAMGWYRQAPAKERELVAAITRGGSTYYADSVKGRFTISRDNSKNTVYLQMNSLKPEDTAVYYCAAAYRGYSSTLWLGHWGQGTQVTVSS | high polyreactivity
QVQLVESGGGLVQAGVSLRLSCAASGFISPKYGMGWYRQAPGKERELVAAITSSGGSTYYADSVKGRFTISRDNAKNTVYLQMNSLKPEDTAVYYCATRQVSRLYPYRYNYWGQGTQVTVSS | high polyreactivity
QVQLVESGGGLVQAGVSLRLSCAASGFTFDYYTMGWYRQAPGKEREFVAAITWNGGTTNYADSVKGRFTISRDNAKNTVYLQMNSLKPEDTAVYYCAATAYWYYSNDSGRSYDYWGQGTQVTVSS | low polyreactivity
QVQLVESGGGLVQAGVSLRLSCAASGFTFSRYGMGWYRQTPGKERELVAAITWSGGNTNYADSVKGRFTISRDNAKNTVYLQMNSLKPEDTAVYYCNAPRGYWSQSHFDYWGQGTQVNVSS | high polyreactivity
QVQLVESGGGLVQAGVSLRLSCAASGGIFADYAMGWYRQAPGKERELVAAISSGGNTNYADSVKGRFTISRDNAKNTVYLQMNSLKPEDTAVYYCNRDTSYYRYVYYEGNDYWGQGTQVTVSS | low polyreactivity
QVQLVESGGGLVQAGVSLRLSCAASGNTFRINTKLCYRQAPGKERDLVATITRRGGSTYYADSVKGRFTISRDNAMNTVYLQMNSLNPEDSAVYYCAARVRGTGVYGGYNYWGQGTQVTVSS | high polyreactivity
QVQLVESGGGLVQAGVSLRLSCAASGRIFGTNAMGWYRQAPGKERELVADITSGGSTNYADSVKGRFTISRDTAKNTVYLQMNSLKPEDTALYYCAADVIGDMRWYRDEYRGQGTQVTVSS | low polyreactivity
QVQLVESGGGLVQAGVSLRLSCAASGRIFYRYAMGWYRPPPVKERELVAGITSGGSTYYADSVKGRFTISRDNAKNTVYLQMMSLKPEDTAVYYCAAVSYRSRTHRYPATFAYGSWGQGTQETVSS | high polyreactivity
QVQLVESGGGLVQAGVSLRLSCAASGRTFYVNAMGWYRQAPGKERELVAAISYSDGITYYADSVKARFTISRDNAKNTVYLQMNSLKPEDTAVYYCAAEGYHYYSQRAGVDYWGQGTQVTVSS | high polyreactivity
QVQLVESGGGLVQAGVSLRLSCAASGSIFRWNAMGWYRQAPGKERELVAAITGSGGSTYYADSVKGRFTISRDNAKNTVYLQMNSLKPEDTAVYYCAAKSPRILLDYWGQGTQVTVSS | low polyreactivity
QVQLVESGGGLVQAGVSLRLSCAASGSIFSWNAMGWYRQAPGKERELVATITWNGGRTYYADSVKGRFTISRDNAKNTVYLQMNSLKPEDTAVYYCAARYYVYWTYPYRVLSYYYWGQGTQVTVSS | high polyreactivity
QVQLVESGGGLVQAGVSLRLSCAASGSIFYEYAMGWYRQAPGKEREFVAAISSSGGSTYYADSEKGRFTISRDNAKNSVYLQMNSLKPEDTAAYYCNAQVGGVSFEYDYWGQGTQVTVSS | low polyreactivity

Sequence | polyreactivity (PSR sort gate)
QVQLVESGGGLVQAGVSLRLSCAASGSLFSANAMGWYRQAPGKERELVASITGDGSTNYADSVKGRFTISRDNAMNTVYLQMNSLKPEDTAVYYCAADIGSWYDYWGQGTQVTVSS | low polyreactivity
QVQLVESGGGLVQAGVSLRLSCAASGTFYYAMGWYRQAPGKEREFVAAISWRGGTTYYADSVKGRFTISRDNAKNTVYLQMNSLKPEDTAVYYCATAPYVTSRRYGPYEYWGQGTQVTVSS | low polyreactivity
QVQLVESGGGLVQAGVSLRLSCAGSGSIFRSYTMGWYRQAPGKERELVAAISYSGGRTYYADSVMGRFTISRDNAKNTVYLQLNSLKPEDTAVYYCARRYYVTGCVGYDYWGQGTQVTVSS | high polyreactivity
QVQLVESGGGLVQAGVSLRLSCPASGRTFGWYAMGWYRQAPGTERELVAAITSGTSTYYADSVKGRFTISRDNAKNTVYLQMNSLKPEDTAVYYCAVDRGISVGYTRFDYWGQGTQVSVSS | low polyreactivity
QVQLVESGGGLVQAGVSLRLSCSASGGTFPQYAMAWYRHAPGKEREFVADITSRGGTTYYADSVKGRFTISRDNAKNTVFLQMNRLKPEDTAVYFCAADNPADWWGLDYWGQGTQVTVSS | low polyreactivity
QVQLVESGGGLVQAGVSLRLSWAASGRTGVNAMGWYRQAPGKERGLVAAINTSVGRTYYADSVKGRFTISRDNAKNPVYLQMNCLKPEDTAVYYCNTDRLGAARYDDWGQGTQVTVSS | low polyreactivity
QVQLVESGGGLVQAGWSLRLSCAASGRTFTHAMGWYRQAPGKERELVADISSGGSPNYADSVKGRFTISRDNAKNSVYLQMNSLKREDTAVSYCAAVSGSLYGYSVDYWGQGTQVTGSS | low polyreactivity
QVQLVESGGGLVQARGILRLSCAASGIIFYTYAMGLYRQAPGKERELVAAITARTANTYYADSVKGRFTISRDNAKNTVYLQMNSLKPEDTAVYYCAAAIYSYRTPYYYWGQGTQVTVSS | high polyreactivity
QVQLVESGGGLVQARGSLRLICAASGFTFYRYVMGWYRQAPGKVRELVAAITGRGGSTYYADSVKGRFTISRDNAKNTVYLQMNSRKPEDTAVYYCAARYVTGTLYLAPYEYWGQGTQVTLSS | low polyreactivity
QVQLVESGGGLVQARGSLRLICAASGSTFGVHAMGWSRQAPGKERELVAAITWRGGSTYYADSLKGRFTISRDTAKNTVYLQMNSLKPEDTAVYYCAADPRYYSYEYWGEGTQVTVSS | high polyreactivity
QVQLVESGGGLVQARGSLRLSCAASGFIFGYYAKGWYRQAPGKERELVAAISPSGGRTYYADSVKGRFTISRDNAKNTVYLQMNILKPEDTAVYYCAAEYAYSLDPVEDYWGQGTLVTVSS | high polyreactivity
QVQLVESGGGLVQARGSLRLSCAASGIILYRNGMGWYRQAPGKERELVAAISWSTGSTYYADSVKGRFTISRDNAKNTVYLQMNSLKPEDTAVYYCATDYVGYSFGMYYWGQGTQVTVSS | low polyreactivity
QVQLVESGGGLVQARGSLRLSCAASGITFGRNTMGWYRQAPGKERELVAAIDSGGNTYADSVKGRFTISRDNAKNTVYLQMNSLKPDDTAVYYCAVDGGEFSSYGYWGQGTQVTVSS | low polyreactivity
QVQLVESGGGLVQARGSLRLSCAASGLTSRYYAMGWYRQAPGKERELVAAISSRGGRTYYADSVKGPFTISRDNAKNTVYLQMNSLQPEDTAVYYCYAAAGAYSFLSTYNRGEEYWGQGTQVTVSS | high polyreactivity
QVQLVESGGGLVQARGSLRLSCAASGRIFNTYAMGRYIQAPGKERELVAAITSSGGSTYYADSVKGRFTISRDNAKNTVYFQMNSLKPEDTAVYYCNAGSLHRRYYYEGDYWGQGTQVTVSS | high polyreactivity
QVQLVESGGGLVQARGSLRLSCAASGRIFRYYAMGSYRQAPGKERELVASITSGARTSYADSVKGRFTISRDIAKNTVYLQMNSLKPEDTAVYYCAAGGRARTYYYWGQGTQVTVSS | high polyreactivity
QVQLVESGGGLVQARGSLRLSCAASGRTISYNVMGWYRQAPGKERELVAAITWTGGSTYYADSVKGRFTISRDNAKNTVYLLMNSLKPEDTAVYYCNAAKPYAYWVPNDYWGQGTQVTVSS | low polyreactivity
QVQLVESGGGLVQARGSLRLSCAASGSIFGYNVMGWYRQAPGIERELVAAITVNGGRTYYADSVKGRFTISRDNAKNTVYLQMNSLIPEDTAVDDCAARVTGTQRSGYYWGQGTQVTVSS | high polyreactivity
QVQLVESGGGLVQARGSLRLSCAASGSIFNLYAMGWYRQAPGKEREFVASISYSGGSTYYADSVKGRFTISRDNAKNTVYLQINSLKPEDTAVYYCNARLEVYGQRYDYWGQGTQVTVSS | low polyreactivity
QVQLVESGGGLVQARGSLRLSCAASGSIFSANAMGWYRQAPVKERELVAAISSSGNTNYADSVKGRFTISRDNAKNTLYLQMNSLKPEDTAVYYCAVELKQVTPGLGYITLDYWGQGTQVTVSS | low polyreactivity
QVQLVESGGGLVQARGSLRLSCAASGSIFYGYALGWYRQAPGKERELVAAITSSGTRTYYADSVKGRFTISRDNAKNTVYLQMNSLKPEDTAVYYCAADGPGYQYDFWGQGTQVTVSS | high polyreactivity
